{"source": "patent US20140303084", "key": {"[1]": {"tested_on": "T1, VSGTGRLTCVASYCWMFQLGSF", "T1 sequence": "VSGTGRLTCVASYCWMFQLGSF"}, "[2]": {"tested_on": "T2, Ac-KLTCLASYCWLF", "T2 sequence": "KLTCLASYCWLF"}, "[3]": {"tested_on": "T3, SKQGRPISPDrRAAGKLTCLASYCWLFWTG", "T3 sequence": "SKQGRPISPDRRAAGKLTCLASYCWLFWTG"}, "[4]": {"tested_on": "T4, RSHSLDRMAG RRAPG KLTCLASYCWLFWTGIA", "T4 sequence": "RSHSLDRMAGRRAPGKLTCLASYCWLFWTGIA"}, "[5]": {"tested_on": "T5, Dab-LTCLASYCWLF", "T5 sequence": "XLTCLASYCWLF"}, "[6]": {"tested_on": "T6, RRRRRKLTCLASYCWLFRRRRR", "T6 sequence": "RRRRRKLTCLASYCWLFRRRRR"}, "[7]": {"tested_on": "T7, HLFGADWLGA RTAPG KLTCLASYCWLFWTGIA", "T7 sequence": "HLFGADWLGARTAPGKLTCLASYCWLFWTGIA"}, "[8]": {"tested_on": "T8, KLTCLASY-HCy-WLF", "T8 sequence": "KLTCLASYXWLF"}, "[9]": {"tested_on": "T9, SKQGRPISSDrRASGKSTCLASYCWLFWTGIA", "T9 sequence": "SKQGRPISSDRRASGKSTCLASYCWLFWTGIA"}, "[10]": {"tested_on": "T10, RRAPGKLTCLASYCWLF WTGWA VLARVPVGWT", "T10 sequence": "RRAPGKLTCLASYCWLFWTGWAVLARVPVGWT"}, "[11]": {"tested_on": "T11, RRAPGKLTCLASYAWLCWTGIA-COOH", "T11 sequence": "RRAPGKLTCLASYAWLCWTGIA"}, "[12]": {"tested_on": "T12, K-k-MeLeu-TCLASYCWLF", "T12 sequence": "KKLTCLASYCWLF"}, "[13]": {"tested_on": "T13, PTDTGPVISG LRAPG KLTCLASYCWLFWTGIA", "T13 sequence": "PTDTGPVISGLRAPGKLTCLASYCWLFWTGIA"}, "[14]": {"tested_on": "T14, SKQARPISPDrRAAGKLTCLASYCWLFWTGIA", "T14 sequence": "T9 sequence with G4A, S9P, S14A, S17L"}, "[15]": {"tested_on": "T15, RRAPGKLQCLASYCWLFWTG-(1-Nal)-A", "T15 sequence": "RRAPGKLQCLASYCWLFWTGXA"}, "[16]": {"tested_on": "T16, RRAPGKLTCLASYCWLF GSGIS LSRAPESAAP", "T16 sequence": "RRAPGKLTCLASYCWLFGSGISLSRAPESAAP"}, "[17]": {"tested_on": "T17, RRAPGCLTALASYAWLCWTGIA-COOH", "T17 sequence": "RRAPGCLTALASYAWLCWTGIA"}, "[18]": {"tested_on": "T18, RRAPGK(PEG2-Biotin)LTCLASYCWLFWTGIA", "T18 sequence": "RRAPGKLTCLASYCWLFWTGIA"}, "[19]": {"tested_on": "T19, compound 19", "T19 sequence": "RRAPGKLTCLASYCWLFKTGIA"}, "[20]": {"tested_on": "T20, (PEG)27-KLTCLASYCWLF", "T20 sequence": "KLTCLASYCWLF"}, "[21]": {"tested_on": "T21, PRIRTVGPGSRSASGKLTCIASYCWLFWTGIA", "T21 sequence": "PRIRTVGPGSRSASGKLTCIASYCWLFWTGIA"}, "[22]": {"tested_on": "T22, RRApGKLTCLASYCWLFWTGIA", "T22 sequence": "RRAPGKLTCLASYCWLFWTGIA"}, "[23]": {"tested_on": "T23, RRAPGKLQCLASYCWLFWTG", "T23 sequence": "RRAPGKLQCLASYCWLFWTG"}, "[24]": {"tested_on": "T24, FGQPSRLTCLASYCWLFGNLVT", "T24 sequence": "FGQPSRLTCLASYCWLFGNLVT"}, "[25]": {"tested_on": "T25, ALTCLAAYCALF", "T25 sequence": "ALTCLAAYCALF"}, "[26]": {"tested_on": "T26, Glu(Biotinyl-PEG)-RAPGKLTCLASYCWLFWTGIA", "T26 sequence": "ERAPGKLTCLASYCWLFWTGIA"}, "[27]": {"tested_on": "T27, KLT-Glu-LASY-Orn-WLF", "T27 sequence": "KLTELASYXWLF"}, "[28]": {"tested_on": "T28, RRAPGKLK(PEG2-Biotin)CLASYCWLFWTGIA", "T28 sequence": "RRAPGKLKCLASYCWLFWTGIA"}, "[29]": {"tested_on": "T29, RQLWNKLTCLASYCALIGLSGT", "T29 sequence": "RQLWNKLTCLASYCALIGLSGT"}, "[30]": {"tested_on": "T30, KLQCLASYCWLFWTGIA", "T30 sequence": "KLQCLASYCWLFWTGIA"}, "[31]": {"tested_on": "T31, KLTCLASYCWLf", "T31 sequence": "KLTCLASYCWLF"}, "[32]": {"tested_on": "T32, PRIRTVGPGSRSASGKSTCLASYCWLFWTGIA", "T32 sequence": "T21 sequence with L17S, I20L"}, "[33]": {"tested_on": "T33, KLTCLASYCW-Nle-F", "T33 sequence": "KLTCLASYCWXF"}, "[34]": {"tested_on": "T34, RRAPGKLTCLASYcWLFWTGIA", "T34 sequence": "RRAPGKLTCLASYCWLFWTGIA"}, "[35]": {"tested_on": "T35, KLT-Glu-LASY-Dab-WLF", "T35 sequence": "KLTELASYXWLF"}, "[36]": {"tested_on": "T36, RRAPGKLTCLASYCWLFWK(PEG2-Biotin)GIA", "T36 sequence": "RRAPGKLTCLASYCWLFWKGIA"}, "[37]": {"tested_on": "T37, GKLQCLASYCWLFWTGIA", "T37 sequence": "GKLQCLASYCWLFWTGIA"}, "[38]": {"tested_on": "T38, RRAPGKLTCLASYCWLFWTG-MeIle-A", "T38 sequence": "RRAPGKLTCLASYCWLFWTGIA"}, "[39]": {"tested_on": "T39, KLTCKASYCWLF", "T39 sequence": "KLTCKASYCWLF"}, "[40]": {"tested_on": "T40, KLT-HCy-LASYCWLF", "T40 sequence": "KLTXLASYCWLF"}, "[41]": {"tested_on": "T41, RRAPGKLTCLASYACLFWTGIA-COOH", "T41 sequence": "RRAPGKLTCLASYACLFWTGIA"}, "[42]": {"tested_on": "T42, RRAPGKLQCLASYCWLFWT-Aib-IA", "T42 sequence": "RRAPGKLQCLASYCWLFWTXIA"}, "[43]": {"tested_on": "T43, CNPRGD-Tyr(OEt)-RC-PEG16-Lys(PEG2-Biotin)-PEG16-rRAPGKLTCLASYCWLFWTGIA", "T43 sequence": "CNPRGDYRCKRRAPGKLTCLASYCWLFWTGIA"}, "[44]": {"tested_on": "T44, PRIRTVGPGSRSASGKLTCLASYCWLFWTLIA", "T44 sequence": "T21 sequence with I20L, G30L"}, "[45]": {"tested_on": "T45, SKQGRPISPDrRAAGKLTCLASYCW-NMeLeu-FWTGIA", "T45 sequence": "T9 sequence with S9P, S14A, S17L"}, "[46]": {"tested_on": "T46, SKQGRPASPDrRAAGKLTCLASYCWLFWTGIA", "T46 sequence": "T9 sequence with I7A, S9P, S14A, S17L"}, "[47]": {"tested_on": "T47, rRAPGKLTCLASSCWLFWTGIA", "T47 sequence": "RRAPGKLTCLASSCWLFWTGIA"}, "[48]": {"tested_on": "T48, MeLys-LTCLASYCWLF", "T48 sequence": "KLTCLASYCWLF"}, "[49]": {"tested_on": "T49, RRAPGkLTCLASYCWLFWTGIA", "T49 sequence": "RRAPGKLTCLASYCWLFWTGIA"}, "[50]": {"tested_on": "T50, SKQGRPISPArRAAGKLTCLASYCWLFWTGIA", "T50 sequence": "T9 sequence with S9P, D10A, S14A, S17L"}, "[51]": {"tested_on": "T51, KLSCQAGQCWVF", "T51 sequence": "KLSCQAGQCWVF"}}, "note": "Substitutions are numbered along the chain they refer to."}
{"substance": "human Factor IXa", "values": [{"measurement": "Vmax, FXa generation assay; (++) means 1-2", "setting": "[1]", "value": "(++)"}, {"measurement": "Vmax, FXa generation assay; (++) means 1-2", "setting": "[2]", "value": "(++)"}, {"measurement": "Vmax, FXa generation assay", "setting": "[3]", "value": "> 2"}, {"measurement": "Vmax, FXa generation assay", "setting": "[4]", "value": "> 3"}, {"measurement": "Vmax, FXa generation assay; (++) means 1-2", "setting": "[5]", "value": "(++)"}, {"measurement": "Vmax, FXa generation assay", "setting": "[6]", "value": "> 2"}, {"measurement": "Vmax, FXa generation assay; (++) means 1-2", "setting": "[7]", "value": "(++)"}, {"measurement": "Vmax, FXa generation assay", "setting": "[8]", "value": "> 3"}, {"measurement": "Vmax, FXa generation assay", "setting": "[9]", "value": "> 3"}, {"measurement": "Vmax, FXa generation assay", "setting": "[10]", "value": "> 2"}, {"measurement": "Vmax, FXa generation assay", "setting": "[11]", "value": "> 0.5"}, {"measurement": "Vmax, FXa generation assay", "setting": "[12]", "value": "> 3"}, {"measurement": "Vmax, FXa generation assay; (++) means 1-2", "setting": "[13]", "value": "(++)"}, {"measurement": "Vmax, FXa generation assay", "setting": "[14]", "value": "> 3"}, {"measurement": "Vmax, FXa generation assay", "setting": "[15]", "value": "> 2"}, {"measurement": "Vmax, FXa generation assay", "setting": "[16]", "value": "> 3"}, {"measurement": "Vmax, FXa generation assay", "setting": "[17]", "value": "> 0.1"}, {"measurement": "Vmax, FXa generation assay; (++) means 1-2", "setting": "[18]", "value": "(++)"}, {"measurement": "Vmax, FXa generation assay with hFIXa", "setting": "[19]", "value": "> 2"}, {"measurement": "Vmax, FXa generation assay", "setting": "[20]", "value": "> 2"}, {"measurement": "Vmax, FXa generation assay", "setting": "[21]", "value": "> 2"}, {"measurement": "Vmax, FXa generation assay; (++) means 1-2", "setting": "[22]", "value": "(++)"}, {"measurement": "Vmax, FXa generation assay", "setting": "[23]", "value": "> 2"}, {"measurement": "Vmax, FXa generation assay; (++) means 1-2", "setting": "[24]", "value": "(++)"}, {"measurement": "Vmax, FXa generation assay; (++) means 1-2", "setting": "[25]", "value": "(++)"}, {"measurement": "Vmax, FXa generation assay", "setting": "[26]", "value": "> 0.8"}, {"measurement": "Vmax, FXa generation assay; (++) means 1-2", "setting": "[27]", "value": "(++)"}, {"measurement": "Vmax, FXa generation assay; (++) means 1-2", "setting": "[28]", "value": "(++)"}, {"measurement": "Vmax, FXa generation assay; (++) means 1-2", "setting": "[29]", "value": "(++)"}, {"measurement": "Vmax, FXa generation assay", "setting": "[30]", "value": "> 2"}, {"measurement": "Vmax, FXa generation assay", "setting": "[31]", "value": "> 3"}, {"measurement": "Vmax, FXa generation assay", "setting": "[32]", "value": "> 3"}, {"measurement": "Vmax, FXa generation assay", "setting": "[33]", "value": "> 2"}, {"measurement": "Vmax, FXa generation assay; (++) means 1-2", "setting": "[34]", "value": "(++)"}, {"measurement": "Vmax, FXa generation assay; (++) means 1-2", "setting": "[35]", "value": "(++)"}, {"measurement": "Vmax, FXa generation assay; (++) means 1-2", "setting": "[36]", "value": "(++)"}, {"measurement": "Vmax, FXa generation assay", "setting": "[37]", "value": "> 2"}, {"measurement": "Vmax, FXa generation assay", "setting": "[38]", "value": "> 2.3"}, {"measurement": "Vmax, FXa generation assay", "setting": "[39]", "value": "> 3"}, {"measurement": "Vmax, FXa generation assay", "setting": "[40]", "value": "> 2"}, {"measurement": "Vmax, FXa generation assay", "setting": "[41]", "value": "> 2"}, {"measurement": "Vmax, FXa generation assay; (++) means 1-2", "setting": "[42]", "value": "(++)"}, {"measurement": "Vmax, FXa generation assay", "setting": "[43]", "value": "> 3"}, {"measurement": "Vmax, FXa generation assay", "setting": "[44]", "value": "> 3"}, {"measurement": "Vmax, FXa generation assay", "setting": "[45]", "value": "> 1.9"}, {"measurement": "Vmax, FXa generation assay", "setting": "[46]", "value": "> 2"}, {"measurement": "Vmax, FXa generation assay; (++) means 1-2", "setting": "[47]", "value": "(++)"}, {"measurement": "Vmax, FXa generation assay; (++) means 1-2", "setting": "[48]", "value": "(++)"}, {"measurement": "Vmax, FXa generation assay", "setting": "[49]", "value": "> 2"}, {"measurement": "Vmax, FXa generation assay", "setting": "[50]", "value": "> 3"}, {"measurement": "Vmax, FXa generation assay", "setting": "[51]", "value": "> 2"}]}
